Results: US20050026839A1 (GENERAL HOSPITAL, published 2005)
Square brackets hold non-standard residues; d marks the D form. Ends that are not written are not given here. hArg = N=C(N)NCCCC[C@H](N)C(=O)O; Nle = CCCC[C@H](N)C(=O)O; Aib = CC(C)(N)C(=O)O

B1: [Aib^1,3,M]PTH(1-21) (peptide)
peptide: [Aib]V[Aib]EIQL[Nle]HQ[hArg]AKWLASVRRY-NH2
modifications: N-terminus assumed
SMILES: CCCC[C@H](NC(=O)[C@H](CC(C)C)NC(=O)[C@H](CCC(N)=O)NC(=O)[C@@H](NC(=O)[C@H](CCC(=O)O)NC(=O)C(C)(C)NC(=O)[C@@H](NC(=O)C(C)(C)N)C(C)C)[C@@H](C)CC)C(=O)N[C@@H](Cc1c[nH]cn1)C(=O)N[C@@H](CCC(N)=O)C(=O)N[C@@H](CCCCNC(=N)N)C(=O)N[C@@H](C)C(=O)N[C@@H](CCCCN)C(=O)N[C@@H](Cc1c[nH]c2ccccc12)C(=O)N[C@@H](CC(C)C)C(=O)N[C@@H](C)C(=O)N[C@@H](CO)C(=O)N[C@H](C(=O)N[C@@H](CCCNC(=N)N)C(=O)N[C@@H](CCCNC(=N)N)C(=O)N[C@@H](Cc1ccc(O)cc1)C(N)=O)C(C)C
notes: unlabeled peptide; also called 674 [Aib^1,3, M]PTH (1-21); 674 [Aib^1,3M]PTH(1-21)
B2: [Aib^1,3,M]PTH(1-14) (peptide)
peptide: [Aib]V[Aib]EIQLMHQ[hArg]AKW-NH2
modifications: N-terminus assumed
SMILES: CC[C@H](C)[C@H](NC(=O)[C@H](CCC(=O)O)NC(=O)C(C)(C)NC(=O)[C@@H](NC(=O)C(C)(C)N)C(C)C)C(=O)N[C@@H](CCC(N)=O)C(=O)N[C@@H](CC(C)C)C(=O)N[C@@H](CCSC)C(=O)N[C@@H](Cc1c[nH]cn1)C(=O)N[C@@H](CCC(N)=O)C(=O)N[C@@H](CCCCNC(=N)N)C(=O)N[C@@H](C)C(=O)N[C@@H](CCCCN)C(=O)N[C@@H](Cc1c[nH]c2ccccc12)C(N)=O
notes: also called 671 [Aib^1,3, M]PTH (1-14); 671 [Aib^1,3M]PTH(1-14)

What was measured:
[1] = biological target: T1, truncated human P1R deleted for residues (24-181) (hP1R-delNt) (human, UniProt Q03431 182-593); test: Scatchard transformation of homologous competition binding, COS-7 cells
T1 construct: whole, on cells; also called delNT receptor
T1 sequence (looked up): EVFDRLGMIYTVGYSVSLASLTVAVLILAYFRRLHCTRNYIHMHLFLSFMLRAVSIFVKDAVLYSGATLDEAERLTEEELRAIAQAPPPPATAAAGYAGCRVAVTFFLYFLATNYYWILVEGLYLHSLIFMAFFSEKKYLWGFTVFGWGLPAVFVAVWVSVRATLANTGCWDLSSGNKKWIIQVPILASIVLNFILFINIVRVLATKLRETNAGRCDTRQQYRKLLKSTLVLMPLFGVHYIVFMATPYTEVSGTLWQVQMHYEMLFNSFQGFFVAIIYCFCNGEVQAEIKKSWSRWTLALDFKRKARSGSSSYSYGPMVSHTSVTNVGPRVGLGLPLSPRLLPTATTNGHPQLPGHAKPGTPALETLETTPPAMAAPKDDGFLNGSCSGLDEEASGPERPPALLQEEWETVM
Protocol: (§1) The cells were subsequently lysed with 0.5 mL […] NaOH and counted for radioactivity. For each tracer and in each experiment, the non-specific binding was determined as the radioactivity that bound in the presence of the same unlabeled peptide at a concentration of 1 μM, and was ˜1% of total radioactivity added for each tracer. The maximum specific binding (B₀) was the total radioactivity bound in the absence of competing ligand, corrected for nonspecific binding, and for each tracer, ranged from 8% to 20% of the total radioactivity added. Nonlinear regression was used to calculate binding IC₅₀ values (see below). Scatchard transformations of homologous competition binding data derived from studies with 26 fmol of ¹²⁵I-[Aib^{1,3},M]PTH(1-21) were employed for estimations of apparent equilibrium dissociation constant (kDapps) and total number of ligand binding sites (Bₘₐₓ), assuming a single class of binding sites and equal affinities of the iodinated and non iodinated ligand.
(§2) To potentially improve affinity of this peptide, the paired Aib-1,3 modifications were introduced to produce [Aib^{1,3},M]PTH(1-21). […] The total specific binding observed in COS-7 cells tranfected with vector DNA alone was<2% of total radioactivity added. This radioligand, therefore, enabled competition binding experiments to be performed with both the wild-type and truncated PTH-1 receptors.

[2] = biological target: T2, wild-type human PTH/PTHrP receptor (hP1R-WT) (human, UniProt Q03431 27-593); test: Scatchard transformation of homologous competition binding, 125I-[Aib1,3,M]PTH(1-21) tracer, COS-7 cells expressing P1R-WT
T2 construct: whole, on cells; HKRK-B28 cells express ~280,000 receptors per cell; also called PTH-1 receptor; PTH-1R
T2 sequence (looked up): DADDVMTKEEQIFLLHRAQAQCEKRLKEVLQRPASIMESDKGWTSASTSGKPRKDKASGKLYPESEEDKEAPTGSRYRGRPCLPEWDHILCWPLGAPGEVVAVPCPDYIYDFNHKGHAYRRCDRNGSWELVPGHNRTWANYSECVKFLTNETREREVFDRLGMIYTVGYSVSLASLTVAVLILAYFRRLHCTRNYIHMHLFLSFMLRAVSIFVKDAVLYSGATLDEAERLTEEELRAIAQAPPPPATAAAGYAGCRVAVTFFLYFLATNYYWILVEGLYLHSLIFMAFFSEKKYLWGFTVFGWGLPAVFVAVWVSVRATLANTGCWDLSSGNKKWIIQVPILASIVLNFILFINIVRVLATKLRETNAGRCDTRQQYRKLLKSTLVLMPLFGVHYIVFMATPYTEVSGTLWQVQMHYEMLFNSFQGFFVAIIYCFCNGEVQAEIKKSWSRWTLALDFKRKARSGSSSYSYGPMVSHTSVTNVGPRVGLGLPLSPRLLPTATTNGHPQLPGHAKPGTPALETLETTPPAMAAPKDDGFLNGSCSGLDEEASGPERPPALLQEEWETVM
Protocol: as §1, §2

[3] = biological target: T2, wild-type human PTH/PTHrP receptor …; test: competition binding, COS-7 cells expressing P1R-WT
[4] = biological target: T2, wild-type human PTH/PTHrP receptor …; test: competition binding on HKRK-B28 cells
Protocol: Competition Binding. Binding reactions were performed with HKRK-B28 cells or in COS-7 cells in 24-well plates. The cells were rinsed with 0.5 mL of binding buffer, and then treated successively with 100 μL binding buffer, 100 μL of binding buffer containing various amounts of unlabeled competitor ligand, and 100 μL of binding buffer containing ca. 100,000 cpm of ¹²⁵I-[M]PTH(1-21) or ¹²⁵I-[Aib^{1,3},M]PTH(1-21)} (ca. 26 fmol; final volume=300 μL). Incubations were 4 to 6 h at 4° C., at which time near equilibrium conditions were attained. Cells were then placed on ice, the binding medium was removed, and the monolayer was rinsed three times with 0.5 mL of cold binding buffer. The cells were subsequently lysed with 0.5 mL […] and counted for radioactivity. For each tracer and in each experiment, the non-specific binding was determined as the radioactivity that bound in the presence of the same unlabeled peptide at a concentration of 1 μM, and was ˜1% of total radioactivity added for each tracer. The maximum specific binding (B₀) was the total radioactivity bound in the absence of competing ligand, corrected for nonspecific binding, and for each tracer, ranged from 8% to 20% of the total radioactivity added. Nonlinear regression was used to calculate binding IC₅₀ values (see below). […]

Binder	fold weaker affinity at P1R-delNt than at P1R-WT [1] [fold]	Kd [2] [nM]	fold stronger binding affinity than [M]PTH(1-14) [3] [fold]	fold higher apparent affinity than [M]PTH(1-14) [4] [fold]
B1	< 2	17	–	–
B2	–	–	~10	100
